Measurements as given in patent publication US20210403591A1 (OSSIANIX, published 2021).
Numbering of substitutions follows the chain as printed.

B1: Clone H VNAR-hFc fusion (Fc fusion, not shown: a dimerising Fc or GST)
chain: ARVDQTPQTITKETGESLTINCVLRDSNCELSSTYWYRKKSGSTNEESISKGGRYVETVNSGSKSFSLRINDLVVEDSGTYRCNVQQFPSSSNGRYWCDVYGGGTAVTVNA
notes: bivalent VNAR-Fc
B2: Clone H variant 1 VNAR-hFc (Fc fusion, not shown: a dimerising Fc or GST)
chain: B1 chain with Q86V, F88W
notes: also called clone H var
B3: Clone H variant 10 VNAR-hFc (Fc fusion, not shown: a dimerising Fc or GST)
chain: B1 chain with S91W, S92F
notes: also called clone H var; 10
B4: Clone H variant 4 VNAR-hFc (Fc fusion, not shown: a dimerising Fc or GST)
chain: B1 chain with S91R, S92F
B5: Clone H variant 2 VNAR-hFc (Fc fusion, not shown: a dimerising Fc or GST)
chain: B1 chain with S92W, N93P, G94F
B6: Clone H variant 3 VNAR-hFc (Fc fusion, not shown: a dimerising Fc or GST)
chain: B1 chain with S91W, S92G
B7: Clone H variant 8 VNAR-hFc (Fc fusion, not shown: a dimerising Fc or GST)
chain: B1 chain with S91R, S92H
B8: Clone H variant 7 VNAR-hFc (Fc fusion, not shown: a dimerising Fc or GST)
chain: B1 chain with S90T, S91R, S92T

What follows are binders tested against T1, purified mTfR1 mutant M3 (NGA) (mouse, UniProt Q62351 89-763) (assay: ELISA, coated purified mTfR-1).
T1 construct: also called S255A
T1 sequence (Q62351 other isoform, or with tags, fused parts or gaps mutant): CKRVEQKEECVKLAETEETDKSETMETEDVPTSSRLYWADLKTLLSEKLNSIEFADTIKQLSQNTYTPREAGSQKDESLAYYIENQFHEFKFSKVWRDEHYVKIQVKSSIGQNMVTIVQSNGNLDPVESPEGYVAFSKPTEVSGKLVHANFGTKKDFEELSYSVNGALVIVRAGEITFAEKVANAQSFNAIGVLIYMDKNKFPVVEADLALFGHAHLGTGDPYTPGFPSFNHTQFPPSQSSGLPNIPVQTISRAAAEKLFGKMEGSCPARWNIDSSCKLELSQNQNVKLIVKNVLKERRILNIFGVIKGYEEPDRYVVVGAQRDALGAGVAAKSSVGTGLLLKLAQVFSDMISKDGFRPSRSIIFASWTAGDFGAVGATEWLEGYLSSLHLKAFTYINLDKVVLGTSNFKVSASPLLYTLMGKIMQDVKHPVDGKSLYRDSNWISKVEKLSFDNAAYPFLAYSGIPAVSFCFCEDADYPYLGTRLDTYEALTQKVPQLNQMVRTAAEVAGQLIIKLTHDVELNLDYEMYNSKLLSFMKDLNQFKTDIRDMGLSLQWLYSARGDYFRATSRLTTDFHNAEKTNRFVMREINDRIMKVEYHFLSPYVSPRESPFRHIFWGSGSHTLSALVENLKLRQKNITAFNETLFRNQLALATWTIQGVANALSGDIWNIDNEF

EC50 [nM] | Binder
6.6 | B1
0.99 | B2
4 | B3

These binders were tested against T2, purified mTfR1 mutant M1 (AGS) (mouse, UniProt Q62351 89-763) (assay: ELISA, coated purified mTfR-1).
T2 construct: also called N253A
T2 sequence (Q62351 other isoform, or with tags, fused parts or gaps mutant): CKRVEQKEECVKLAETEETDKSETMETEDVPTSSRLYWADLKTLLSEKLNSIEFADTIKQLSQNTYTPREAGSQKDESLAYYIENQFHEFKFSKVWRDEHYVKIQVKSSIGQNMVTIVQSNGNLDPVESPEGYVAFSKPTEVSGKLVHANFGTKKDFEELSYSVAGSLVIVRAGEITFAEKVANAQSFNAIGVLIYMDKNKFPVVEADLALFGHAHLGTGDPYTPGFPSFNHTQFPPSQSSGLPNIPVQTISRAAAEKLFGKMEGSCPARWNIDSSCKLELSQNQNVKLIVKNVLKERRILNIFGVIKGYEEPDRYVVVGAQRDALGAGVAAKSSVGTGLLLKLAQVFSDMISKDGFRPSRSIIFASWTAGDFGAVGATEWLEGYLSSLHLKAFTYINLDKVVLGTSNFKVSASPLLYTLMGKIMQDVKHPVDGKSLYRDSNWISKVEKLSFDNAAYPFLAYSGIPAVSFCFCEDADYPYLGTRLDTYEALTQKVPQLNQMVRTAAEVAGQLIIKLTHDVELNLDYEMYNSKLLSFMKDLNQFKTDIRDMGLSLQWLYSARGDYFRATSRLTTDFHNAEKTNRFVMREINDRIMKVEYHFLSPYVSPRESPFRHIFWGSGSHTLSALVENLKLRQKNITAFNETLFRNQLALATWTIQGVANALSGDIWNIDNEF

EC50 [nM] | Binder
5.7 | B1
1.4 | B2
3.3 | B3

These binders were tested against T3, purified mTfR1 mutant M2 (NAS) (mouse, UniProt Q62351 89-763) (assay: ELISA, coated purified mTfR-1).
T3 construct: also called G254A
T3 sequence (Q62351 other isoform, or with tags, fused parts or gaps mutant): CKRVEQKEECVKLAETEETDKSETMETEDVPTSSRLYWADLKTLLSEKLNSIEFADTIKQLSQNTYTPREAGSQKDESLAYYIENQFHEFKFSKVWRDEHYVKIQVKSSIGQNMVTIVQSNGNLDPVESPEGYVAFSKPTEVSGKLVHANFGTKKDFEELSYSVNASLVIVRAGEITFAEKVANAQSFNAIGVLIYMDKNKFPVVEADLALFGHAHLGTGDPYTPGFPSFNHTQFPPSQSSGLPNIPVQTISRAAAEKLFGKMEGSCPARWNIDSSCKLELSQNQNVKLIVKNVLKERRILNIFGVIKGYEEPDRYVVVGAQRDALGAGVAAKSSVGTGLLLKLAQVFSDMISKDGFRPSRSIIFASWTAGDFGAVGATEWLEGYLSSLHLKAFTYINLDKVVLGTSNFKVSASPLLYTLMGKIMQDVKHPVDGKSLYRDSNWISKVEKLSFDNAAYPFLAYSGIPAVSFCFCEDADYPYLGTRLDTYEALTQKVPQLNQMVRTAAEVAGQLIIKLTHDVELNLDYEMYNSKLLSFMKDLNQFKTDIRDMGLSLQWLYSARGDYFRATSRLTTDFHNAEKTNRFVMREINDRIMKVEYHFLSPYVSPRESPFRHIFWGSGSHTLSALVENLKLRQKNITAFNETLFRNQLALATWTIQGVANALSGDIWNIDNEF

EC50 [nM] | Binder
170 | B1
4.7 | B2
22 | B3

Each binder was assayed against purified WT mTfR-1 (ELISA coat) (mouse, UniProt Q62351 89-763) (assay: ELISA, coated purified mTfR-1).
Chain of purified WT mTfR-1 (ELISA coat) (Q62351 89-763): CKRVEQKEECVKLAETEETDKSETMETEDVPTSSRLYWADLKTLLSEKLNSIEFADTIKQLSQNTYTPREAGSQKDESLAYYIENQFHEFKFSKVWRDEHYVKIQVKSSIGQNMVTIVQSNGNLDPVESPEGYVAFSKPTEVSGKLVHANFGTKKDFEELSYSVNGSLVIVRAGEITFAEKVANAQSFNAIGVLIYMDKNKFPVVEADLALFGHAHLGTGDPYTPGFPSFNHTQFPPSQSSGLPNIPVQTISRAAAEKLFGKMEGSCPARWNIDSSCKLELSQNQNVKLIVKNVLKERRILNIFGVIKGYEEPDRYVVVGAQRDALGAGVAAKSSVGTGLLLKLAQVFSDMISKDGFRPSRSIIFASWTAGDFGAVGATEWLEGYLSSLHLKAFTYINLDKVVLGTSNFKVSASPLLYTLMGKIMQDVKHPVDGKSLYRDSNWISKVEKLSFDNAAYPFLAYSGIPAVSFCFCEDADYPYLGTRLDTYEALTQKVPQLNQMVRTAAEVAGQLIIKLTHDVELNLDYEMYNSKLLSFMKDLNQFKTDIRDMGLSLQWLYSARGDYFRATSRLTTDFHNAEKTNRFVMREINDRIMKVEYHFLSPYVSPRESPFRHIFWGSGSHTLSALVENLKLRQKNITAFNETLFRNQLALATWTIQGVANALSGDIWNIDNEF

EC50 [nM] | Binder
1.6 | B1
0.69 | B2
2.5 | B3

These binders were tested against T3, purified mTfR1 mutant M2 (NAS) (assay: ELISA, coated purified mTfR-1 mutant M2 (NAS) against WT).

fold reduction of binding relative to WT mTfR-1 [fold] | Binder
~10 | B1
~10 | B2
~10 | B3

These binders were tested against T4, recombinant human TfR-1, His-tagged (Sino Biological 11020-H07H) (human, UniProt P02786 89-760) (assay: SPR, His-captured TfR1).
T4 construct: bought; His-tagged; also called hTfR1; hTfR-1
Description: (§1) Detailed binding kinetic analyses were performed to gain a better understanding of the relationship between affinity and brain penetration of the Clone H variants. Biacore surface plasmon resonance (SPR) analysis using immobilized mouse and human TfR-1 was performed for the clones (Table 5).
(§2) Binding kinetics of VNAR-Fcs was determined by surface plasmon resonance (Biacore T200, GE Healthcare). CMS chips were coated with anti-His antibodies (His Capture Kit, GE Healthcare) as recommended by the manufacturer and human or mouse his-tagged TfR1 (SinoBiological) at 10 ug/mL in HBS-EP+ (GE Healthcare) was captured at flow rate 10 ul/min (contact time 120 s). […] A flow cell without TfR1 captured served as a reference. Sensorgrams were fitted and kinetic constants were determined using Biacore T200 Evaluation software. Chips were regenerated in 10 mM Glycine-HCl, pH 1.5 (contact time: 120 s at flow rate 30 ul/min).

T4 sequence (P02786 89-760 limits assumed): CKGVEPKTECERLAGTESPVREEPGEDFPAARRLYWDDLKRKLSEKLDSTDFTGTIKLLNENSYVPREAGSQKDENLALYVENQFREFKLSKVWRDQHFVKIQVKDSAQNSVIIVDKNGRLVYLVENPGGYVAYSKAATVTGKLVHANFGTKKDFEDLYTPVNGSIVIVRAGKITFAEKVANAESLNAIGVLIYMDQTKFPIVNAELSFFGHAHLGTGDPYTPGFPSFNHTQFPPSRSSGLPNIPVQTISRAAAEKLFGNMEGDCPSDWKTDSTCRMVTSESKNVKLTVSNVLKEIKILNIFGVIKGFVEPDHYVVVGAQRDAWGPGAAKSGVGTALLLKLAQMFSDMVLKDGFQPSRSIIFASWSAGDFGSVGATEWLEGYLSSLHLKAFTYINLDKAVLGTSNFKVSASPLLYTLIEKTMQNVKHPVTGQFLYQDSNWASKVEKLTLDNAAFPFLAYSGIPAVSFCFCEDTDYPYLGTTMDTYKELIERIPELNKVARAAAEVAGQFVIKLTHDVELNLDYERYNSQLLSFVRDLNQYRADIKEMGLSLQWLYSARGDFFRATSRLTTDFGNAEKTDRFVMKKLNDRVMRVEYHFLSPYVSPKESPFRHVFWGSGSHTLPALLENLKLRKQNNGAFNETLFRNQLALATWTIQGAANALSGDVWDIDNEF

Kd [nM] | koff [s⁻¹] | kon [M⁻¹ s⁻¹] | Binder
6.11 | 0.00183 | 301000 | B1
2.38 | 0.000121 | 50800 | B2
15.9 | 0.00183 | 115000 | B4
3.37 | 0.000269 | 79900 | B3
3.77 | 0.000403 | 107000 | B5
4.71 | 0.000254 | 53900 | B6
25 | 0.000948 | 38000 | B7

What follows are binders tested against T5, recombinant mouse TfR-1, His-tagged (Sino Biological 50741-M07H) (mouse, UniProt Q62351 89-763) (assay: SPR, His-captured TfR1).
T5 construct: bought; His-tagged; also called mTfR1; mTfR-1
Description: as §1, §2

T5 sequence (Q62351 89-763 limits assumed, stated change not applied): as the sequence (Q62351 89-763) above

Kd [nM] | koff [s⁻¹] | kon [M⁻¹ s⁻¹] | Binder
2.54 | 9.11e-05 | 35800 | B1
4.69 | 0.000195 | 41600 | B2
12.4 | 0.000352 | 28300 | B4
5.53 | 0.000279 | 50500 | B3
25.2 | 0.000482 | 19100 | B5
5.59 | 0.000273 | 48900 | B6
15.6 | 0.000399 | 25600 | B8
8.4 | 0.000618 | 73600 | B7
